Assay results as given in US20130046257A1, “METHODS OF USING AGENTS THAT MODULATE CLAUDIN EXPRESSION” (priority 2010, published 2013).
Values joined by “and” are separate entries in the source; they are usually repeats but may differ in a detail not shown here. Equal values may be shown once. “Also recorded” adds a separate entry of the source.

Tests used:
Type in all cases: cell-based, human
[1] = test system: occludin, ZO-1, nectin-1, E-cadherin, filaggrin mRNA; experiment: qPCR of other barrier genes in claudin-1 siRNA transfected PHK; details: siRNA 100 nM
Method: (§1) QPCR was performed using the iScript™ cDNA Synthesis kit and iQ™ SYBER Green Supermix assay system (Bio-Rad Laboratories). All PCR amplifications were carried out in triplicate on an iQ5 Multicolor real-time PCR detection system (Bio-Rad). Primers were designed and synthesized by Integrated
(§2) DNA Technologies (Table 1). Relative gene expression was calculated by using the 2^−ΔΔCt method. Livak and Schmittgen, “Analysis of Relative Gene Expression Data Using Real-Time Quantitative PCR and the 2(-Delta Delta C(T)) Method,” Methods 25:402-8 (2001), which is hereby incorporated by reference in its entirety. The normalized Ct value of each sample was calculated using GAPDH as an endogenous control gene.
Reverse transcription was performed from total RNA using iScript™ cDNA Synthesis kit (Bio-Rad) according to the manufacturer's protocol. qPCR was performed using the iQ™ SYBER Green Supermix assay system from Bio-Rad Laboratories. All PCR amplifications were carried out in triplicate on an iQ5 Multicolor real-time PCR detection system (Bio-Rad). Primers were designed and synthesized by Integrated DNA Technologies. Primers used in the study: GAPDH (forward: SEQ ID NO: 16 and reverse: SEQ ID NO: 17); Cldn-1 (forward: (SEQ ID NO:18 and reverse: SEQ ID NO:19); PVRL1 (Nectin1; forward: SEQ ID NO:28 and reverse SEQ ID NO:29).
Relative gene expression was calculated by using the […] method, in which Ct indicates cycle threshold, the fractional cycle number where the fluorescent signal reaches detection threshold. Livak and Schmittgen, “Analysis of Relative Gene Expression Data Using Real-Time Quantitative PCR and the 2(-Delta Delta C(T)) Method,” Methods 25:402-8 (2001), which is hereby incorporated by reference in its entirety. The normalized Ct value of each sample was calculated using GAPDH as an endogenous control gene.

[2] = test system: connexin-26 (GJB2); experiment: qPCR of connexin-26 in claudin-1 siRNA transfected PHK; details: n=6
Method: as §1, §2

[3] = test system: claudin-1; experiment: Western blot of claudin-1 in siRNA transfected PHK; details: 48 h
claudin-1, sequence (O95832 whole entry): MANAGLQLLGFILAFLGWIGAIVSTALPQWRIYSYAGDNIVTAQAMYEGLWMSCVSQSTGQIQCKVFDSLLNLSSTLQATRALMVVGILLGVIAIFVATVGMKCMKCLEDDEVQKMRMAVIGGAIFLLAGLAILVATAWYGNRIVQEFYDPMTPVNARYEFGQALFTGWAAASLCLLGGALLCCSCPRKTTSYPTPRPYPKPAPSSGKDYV
Method: PHK were lysed on ice in RIPA lysis buffer (20 mM Tris, 50 mM NaCl, 2 mM EDTA, 2 mM EGTA, 1% sodium deoxycholate, 1% TX-100, and 2% SDS, pH 7.4), with 1:100 Protease Inhibitor Cocktail (Sigma), 1:100 Phosphatase Inhibitor Cocktail ([…] for 30 min at 4° C. The samples were heated at 95° C. for 10 min and then centrifuged at 14,000 rpm for 15 min. Forty μg of protein, determined by BCA (Pierce) in NuPage LDS Sample Buffer (Invitrogen) was applied to 4-12% NuPage Bis-Tris gels (Invitrogen). Electrophoresis was performed under reducing conditions with MES SDS Buffer (Invitrogen). Membranes were incubated in blotting solution (5% non-fat dry milk in PBS+0.05% Tween 20) at RT for 1 h and then incubated with primary antibodies; claudin-1 (JAY.8; Zymed), occludin (OC/3F10; Zymed) and GAPDH (FL-355; Santa Cruz). An HRP-linked secondary antibody (GE Healthcare) was used with ECL (GE Healthcare) to visualize bands by autoradiography with Kodak BioMax MR film. The pixel intensity of each band was estimated with Image J.
(§3) PHK were plated on glass coverslips at 2-3×10^5 cells/well in a 6-well plate or at 2-3×10^4 cells/filter in Transwell insert (Costar; PET membrane, 0.4 μm pore size, 6.5 mm insert) in Keratinocyte-SFM without antibiotics. […]

[4] = test system: claudin-1 transcripts; experiment: qPCR of claudin-1 transcripts in PHK transfected with claudin-1 siRNA; details: siRNA 100 nM, 2^-ΔΔCt, GAPDH normalised, listed as Cldn1 siRNA
Method: as §1, §2, §3
siRNA approach was used to selectively downregulate claudin-1 in primary human keratinocytes (PHK). […] Relative gene expressions were calculated by using the 2^−ΔΔCt method, in which Ct indicates cycle threshold, the fractional cycle number where the fluorescent signal reaches detection threshold. The normalized Ct value of each sample was calculated using GAPDH as endogenous control gene. […]

[5] = test system: HSV-1 strain F; experiment: Infectious center assay (HSV-1 infected PHK on Vero cells); details: siRNA 100 nM, 24 h post-infection, n=3
Method: Infection studies were performed using the highly virulent HSV-1 strain F (provided by Dr. D.C. Johnson). Twenty-four to 48 h post-transfection with 100 nM claudin-1 or control siRNA, the cells were differentiated in DMEM with 10% heat-inactivated FBS for 24 h. Cells were washed twice with HBSS and infected with HSV-1 strain F at a multiplicity of infection (MOI) of 0.1 in DMEM containing 1% heat-inactivated FBS at 37° C., with rocking every 15 min. After 2 h, the viral inoculum was removed, and the cells were washed 2× with HBSS and incubated in DMEM containing 5% HI-FBS and 0.4% human-γ-globulin (Sigma; final concentration 0.5 mg/ml) for 24 hr to neutralize any extracellular virus.
Twenty-four hours post-infection, PHK were treated with 0.05% Trypsin—EDTA (Invitrogen/Gibco) for 5 min at 37° C. followed by gently scraping to lift the cells, washed 3 times in DMEM containing 1% HI-FBS, and vortexed for 30 sec to disrupt cell clumps. Alive cells were counted using Trypan blue exclusion and scalar PHK dilutions (1000 to 1 cells in 1 ml of media) were plated onto pre-grown monolayers of Vero cells in six well plates. After 2 h, 1 ml of DMEM containing 5% HI-FBS and 0.4% human-γ-globulin (Sigma; final concentration 0.5 mg/ml) was added to each well. […] Plaques were counted by 2 independent investigators and results expressed as percent of infected PHK.

B1: CLDN1 siRNA: claudin-1 siRNA (h), Santa Cruz; a pool of 3 separate strands, SEQ ID NO: 10-15 (nucleic acid)
chain 1: UACAUAGGCAUAGUUCAUGNN
chain 2: CAUGAACUAUGCCUAUGUANN
chain 3: AACGUAUGCAGUUAAUUCCNN
chain 4: GGAAUUAACUGCAUACGUUNN
chain 5: UGAAGAUCUAUGUAUGUGGNN
chain 6: CCACAUACAUAGAUCUUCANN
modifications: chemistry not given here
- effect on nectin-1 mRNA expression [1]: not affected; also recorded: no effect
- effect on mRNA expression of occludin, ZO-1, nectin-1, E-cadherin or filaggrin ([1]; n=5/group): no effect
- nectin-1 (PVRL1) mRNA relative expression ([1]; n=5/group): 0.99±0.16
- connexin-26 (GJB2) expression, fold over control [2]: 1.7±0.8 fold
- claudin-1 protein by Western blot [3]: dose-dependent reduction
- decrease in claudin-1 protein expression compared to scrambled siRNA-transfected cells ([3]; Western blot, dose-dependent): ≤ 60%
- claudin-1 transcripts, fold of control transfected cells [4]: 0.5%±0.06 fold
- PHK infected with HSV-1 [5]: 38±6% and 38±6.43%
